The text below walks through data of article PMC11151596, “Improving the enzymatic activity and stability of N-carbamoyl hydrolase using deep learning approach” (Microbial Cell Factories, 2024).

Substrate in the data set: NC(=O)NC(C(=O)O)c1ccc(O)cc1
Briefly: HPLC of D-HPG formed, double reciprocal plot. Type of data set: biochemical, Agrobacterium sp. KNK712. As to conditions: 50 mM Tris-HCl pH 7.5, 65 °C, 0.1-10.0 mM CpHPG. From the text: HPLC of D-HPG formed, double reciprocal plot on DCase (N-carbamoyl-D-amino acid amidohydrolase, EC 3.5.1.77; N-carbamoyl hydrolase)

B1: DCase (N-carbamoyl-D-amino acid amidohydrolase, EC 3.5.1.77; N-carbamoyl hydrolase) (Agrobacterium sp. KNK712) (protein)
chain: MTRQMILAVGQQGPIARAETREQVVVRLLDMLTKAASRGANFIVFPELALTTFFPRWHFTDEAELDSFYETEMPGPVVRPLFEKAAELGIGFNLGYAELVVEGGVKRRFNTSILVDKSGKIVGKYRKIHLPGHKEYEAYRPFQHLEKRYFEPGDLGFPVYDVDAAKMGMFICNDRRWPEAWRVMGLRGAEIICGGYNTPTHNPPVPQHDHLTSFHHLLSMQAGSYQNGAWSAAAGKVGMEENCMLLGHSCIVAPTGEIVALTTTLEDEVITAAVDLDRCRELREHIFNFKQHRQPQHYGLIAEL
notes: pET-28a(+)-Case, N- and C-terminal His6 tags, expressed in E. coli BL21(DE3), Ni-NTA purified, about 37 kDa
For the protein B1, the Km was 2590 ± 220 µM, the kcat was 7.98 ± 0.212 s⁻¹ and the kcat/Km turned out to be 3080 ± 218 M⁻¹ s⁻¹.
